Laboratory results from doi:10.1101/2025.01.28.635075.
Values joined by “and” are separate entries in the source; they are usually repeats but may differ in a detail not shown here. Equal values may be shown once.

Experiments:
[1] = target: MMOH protomer (αβγ) from Methylosinus sporium 5 (Methylosinus sporium 5); test: cryo-EM structure
[2] = target: soluble methane monooxygenase hydroxylase (MMOH), α2β2γ2, from Methylosinus sporium 5 (Methylosinus sporium 5); test: cryo-EM structure

stoichiometry N [1] | stoichiometry N [2] | Substance
2 |  | MMOH protomer (αβγ) from Methylosinus sporium 5 (from UniProt A0ACH3GMT4 1-520) (complex)
 | 1 and 2 | regulatory component of soluble methane monooxygenase (MMOB) from Methylosinus sporium 5 (natural protein)
